Read-outs that look alike come from different tables or passages of the source.

From article PMC12325741 (2025) come the findings set out here.

Assay in all cases: SPR
On the technique in general: SPR reads the build-up and loss of mass on a sensor chip optically.

In experiment [1] the target is T1, CK19 (ligand protein of the Biacore assay) (UniProt P08727 1-400).
T1 chain: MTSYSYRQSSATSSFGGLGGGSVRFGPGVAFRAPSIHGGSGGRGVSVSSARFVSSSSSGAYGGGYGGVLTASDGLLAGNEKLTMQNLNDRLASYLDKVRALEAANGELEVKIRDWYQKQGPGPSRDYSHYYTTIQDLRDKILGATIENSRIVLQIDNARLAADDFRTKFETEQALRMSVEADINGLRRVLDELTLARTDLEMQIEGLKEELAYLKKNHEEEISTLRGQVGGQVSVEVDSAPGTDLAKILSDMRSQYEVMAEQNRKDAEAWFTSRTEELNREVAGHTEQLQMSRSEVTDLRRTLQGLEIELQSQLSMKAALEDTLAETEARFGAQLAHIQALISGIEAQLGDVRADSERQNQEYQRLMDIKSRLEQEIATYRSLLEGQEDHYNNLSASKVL

For experiment [2], the target named is T1, CK19 (ligand protein of the Biacore …).
For experiment [3] the target is unchanged.
For experiment [4] the target is unchanged.

B1: NICD2-His (domain or fragment)
chain: VIMAKRKRKHGSLWLPEGFTLRRDASNHKRREPVGQDAVGLKNLSVQVSEANLIGTGTSEHWVDDEGPQPKKVKAEDEALLSEEDDPIDRRPWTQQHLEAADIRRTPSLALTPPQAEQEVDVLDVNVRGPDGCTPLMLASLRGGSSDLSDEDEDAEDSSANIITDLVYQGASLQAQTDRTGEMALHLAARYSRADAAKRLLDAGADANAQDNMGRCPLHAAVAADAQGVFQILIRNRVTDLDARMNDGTTPLILAARLAVEGMVAELINCQADVNAVDDHGKSALHWAAAVNNVEATLLLLKNGANRDMQDNKEETPLFLAAREGSYEAAKILLDHFANRDITDHMDRLPRDVARDRMHHDIVRLLDEYNVTPSPPGTVLTSALSPVICGPNRSFLSLKHTPMGKKSRRPSAKSTMPTSLPNLAKEAKDAKGSRRKKSLSEKVQLSESSVTLSPVDSLESPHTYVSDTTSSPMITSPGILQASPNPMLATAAPPAPVHAQHALSFSNLHEMQPLAHGASTVLPSVSQLLSHHHIVSPGSGSAGSLSRLHPVPVPADWMNRMEVNETQYNEMFGMVLAPAEGTHPGIAPQSRPPEGKHITTPREPLPPIVTFQLIPKGSIAQPAGAPQPQSTCPPAVAGPLPTMYQIPEMARLPSVAFPTAMMPQQDGQVAQTILPAYHPFPASVGKYPTPPSQHSYASSNAAERTPSHSGHLQGEHPYLTPSPESPDQWSSSSPHSASDWSDVTTSPTPGGAGGGQRGPGTHMSEPPHNNMQVYA
For orientation: koff means the rate constant with which the complex falls apart. A lower koff goes with a long-lived complex. The term Kd denotes the equilibrium constant for the complex coming apart. On to B1, for which the koff in experiment [1] is 0.0854 s⁻¹. This molecule returned a Kd in experiment [2] of 635 nM.

B2: MANF (analyte of the Biacore assay) (natural protein)
chain: LRPGDCEVCISYLGRFYQDLKDRDVTFSPATIENELIKFCREARGKENRLCYYIGATDDAATKIINEVSKPLAHHIPVEKICEKLKKKDSQICELKYDKQIDLSTVDLKKLRVKELKKILDDWGETCKGCAEKSDYIRKINELMPKYAPKAASARTDL
For B2, the Kd in experiment [3] is 214 nM. The molecule further gave a koff in experiment [4] of 0.0117 s⁻¹.
